Patent publication US20250213627A1, “RECOMBINANT MICROORGANISM-BASED METHODS AND COMPOSITIONS FOR TREATMENT OF DISEASE” (Baylor College of Medicine, priority 2021, published 2025)

Assays:
[1] = target: Kv1.3 potassium channel (species not stated for this experiment); assay: cell-based or functional assay
rat IgG = assay: ELISA positive control, wells coated with 1 µg/ml rat IgG, anti-rat IgG-HRP and TMB

Substance	block of peak Kv1.3 currents by culture supernatant (patch-clamp) [1] [%]	reading at 450 nm (rat IgG) [OD 450 nm]
HA-tagged ShK-235 secreted by LrS235-HA (peptide)	25	
anti-rat IgG-HRP (antibody)		3.3
